This note sets out measurements from patent US20180362585A1 (Bicycle, published 2018).

For assay [1], the target named is T1, human plasma Kallikrein (human, UniProt P03952 20-638).
T1 construct: also called hPK; human PK
The experiment in a line: enzyme inhibition. As to the method:
(§1) Functional enzyme assays were conducted in 10 mM Tris HCl, 150 mM NaCl, 10 mM MgCl2, 1 mM CaCl₂) and 1 mg/mL BSA (all Sigma UK) pH7.4 at 25° C. in solid black 96 well plates. […] Release of AMC was measured using a Pherastar FS (BMG Labtech), excitation 360 nm, emission 460 nm. The rate of the linear phase of the reaction, typically 5 to 45 minutes, was calculated in MARS data analysis software (BMG labtech). The rate was then used to calculate the IC50 and Ki in Prism (GraphPad).
Crucially, such modifications should not affect the potency against human or rat Kallikrein. An initial exploration regarding the role of the WPAR (SEQ ID No. 19) sequence/pharmacophore (FIG. 9, 10) was performed by replacing W₂P₃ with A₂A₃ or A₂Q₃ and by scrambling parts or the entire first loop of the bicycle.

In assay [2] the target is T1, human plasma Kallikrein. The experiment in a line: enzyme inhibition. As to the method: as §1
The source holds these as a separate data set.

Assay [3] addresses T1, human plasma Kallikrein. Nature of the assay: enzyme inhibition; ref WT. As to the method:
as §1

Read-outs that look alike come from different tables or passages of the source. Numbered stars: 1 amine (or outer) side, 2 acyl side, 3 side chain; on linkers, the order of the positions; unused ones are H or OH. Bridge positions count the residues as written; N and C are the ends. TBMB = c1c(C[*:1])cc(C[*:3])cc1C[*:2]

T1 sequence (P03952 20-638 limits assumed): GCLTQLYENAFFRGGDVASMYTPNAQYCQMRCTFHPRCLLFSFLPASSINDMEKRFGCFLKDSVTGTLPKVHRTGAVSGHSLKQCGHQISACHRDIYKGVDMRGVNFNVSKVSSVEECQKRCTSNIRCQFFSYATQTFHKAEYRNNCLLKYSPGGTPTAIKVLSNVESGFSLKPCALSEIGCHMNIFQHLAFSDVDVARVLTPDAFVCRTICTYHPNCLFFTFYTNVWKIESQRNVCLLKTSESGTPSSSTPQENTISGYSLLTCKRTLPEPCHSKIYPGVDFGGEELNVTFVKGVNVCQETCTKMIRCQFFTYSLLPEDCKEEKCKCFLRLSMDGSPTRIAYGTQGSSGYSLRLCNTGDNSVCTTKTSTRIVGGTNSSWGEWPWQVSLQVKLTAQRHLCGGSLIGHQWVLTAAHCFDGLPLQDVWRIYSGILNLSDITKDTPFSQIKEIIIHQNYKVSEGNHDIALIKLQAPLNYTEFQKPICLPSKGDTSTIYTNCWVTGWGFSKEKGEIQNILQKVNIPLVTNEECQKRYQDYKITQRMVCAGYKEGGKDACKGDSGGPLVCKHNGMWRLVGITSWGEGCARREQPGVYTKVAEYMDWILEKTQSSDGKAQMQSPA

B1: Ac-(06-34-18) Scram4 (peptide)
peptide: Ac-CWARSPCLHQDLC-NH2
modifications: linker 1-7-13 via TBMB
SMILES: CC(=O)N[C@H]1CSCc2cc3cc(c2)CSC[C@H](NC(=O)[C@@H]2CCCN2C(=O)[C@H](CO)NC(=O)[C@H](CCCNC(=N)N)NC(=O)[C@H](C)NC(=O)[C@H](Cc2c[nH]c4ccccc24)NC1=O)C(=O)N[C@@H](CC(C)C)C(=O)N[C@@H](Cc1c[nH]cn1)C(=O)N[C@@H](CCC(N)=O)C(=O)N[C@@H](CC(=O)O)C(=O)N[C@@H](CC(C)C)C(=O)N[C@H](C(N)=O)CSC3
Molecule B1 returned a Ki in assay [1] of 67.5 µM.

B2: Ac-(06-34-18) Phe2 Tyr4 Thr7 Thr8 Glu9 (peptide)
peptide: Ac-CSFPYRCLTTELC-NH2
modifications: linker 1-7-13 via TBMB
SMILES: CC(=O)N[C@H]1CSCc2cc3cc(c2)CSC[C@H](NC(=O)[C@H](CCCNC(=N)N)NC(=O)[C@H](Cc2ccc(O)cc2)NC(=O)[C@@H]2CCCN2C(=O)[C@H](Cc2ccccc2)NC(=O)[C@H](CO)NC1=O)C(=O)N[C@@H](CC(C)C)C(=O)N[C@@H]([C@@H](C)O)C(=O)N[C@@H]([C@@H](C)O)C(=O)N[C@@H](CCC(=O)O)C(=O)N[C@@H](CC(C)C)C(=O)N[C@H](C(N)=O)CSC3
notes: also called loop 2 LTTEL
On to B2, for which the affinity in assay [2] corresponds to a Ki of 0.081 µM. The “F (Kivar/KiWT)” value in assay [3] is 193 fold.

B3: Ac-(06-34-18) A2A3 (peptide)
peptide: Ac-CSAAARCLHQDLC-NH2
modifications: linker 1-7-13 via TBMB
SMILES: CC(=O)N[C@H]1CSCc2cc3cc(c2)CSC[C@H](NC(=O)[C@H](CCCNC(=N)N)NC(=O)[C@H](C)NC(=O)[C@H](C)NC(=O)[C@H](C)NC(=O)[C@H](CO)NC1=O)C(=O)N[C@@H](CC(C)C)C(=O)N[C@@H](Cc1c[nH]cn1)C(=O)N[C@@H](CCC(N)=O)C(=O)N[C@@H](CC(=O)O)C(=O)N[C@@H](CC(C)C)C(=O)N[C@H](C(N)=O)CSC3
B3: in assay [2], the “fold reduction in binding vs wildtype” value was roughly 100000 fold. The same molecule registered a Ki in assay [1] of 18.5 µM.

B4: Ac-(06-34-18) A2Q3 (peptide)
peptide: Ac-CSAQARCLHQDLC-NH2
modifications: linker 1-7-13 via TBMB
SMILES: CC(=O)N[C@H]1CSCc2cc3cc(c2)CSC[C@H](NC(=O)[C@H](CCCNC(=N)N)NC(=O)[C@H](C)NC(=O)[C@H](CCC(N)=O)NC(=O)[C@H](C)NC(=O)[C@H](CO)NC1=O)C(=O)N[C@@H](CC(C)C)C(=O)N[C@@H](Cc1c[nH]cn1)C(=O)N[C@@H](CCC(N)=O)C(=O)N[C@@H](CC(=O)O)C(=O)N[C@@H](CC(C)C)C(=O)N[C@H](C(N)=O)CSC3
Take B4: the “fold reduction in binding vs wildtype” value in assay [2] was roughly 100000 fold. In addition, the Ki in assay [1] is 15.8 µM.

B5: Ac-(06-34-18) Scram3 (peptide)
peptide: Ac-CAPWSRCLHQDLC-NH2
modifications: linker 1-7-13 via TBMB
SMILES: CC(=O)N[C@H]1CSCc2cc3cc(c2)CSC[C@H](NC(=O)[C@H](CCCNC(=N)N)NC(=O)[C@H](CO)NC(=O)[C@H](Cc2c[nH]c4ccccc24)NC(=O)[C@@H]2CCCN2C(=O)[C@H](C)NC1=O)C(=O)N[C@@H](CC(C)C)C(=O)N[C@@H](Cc1c[nH]cn1)C(=O)N[C@@H](CCC(N)=O)C(=O)N[C@@H](CC(=O)O)C(=O)N[C@@H](CC(C)C)C(=O)N[C@H](C(N)=O)CSC3
The molecule B5 gave a Ki in assay [1] of 1.89 µM.
